Results taken from the DeepSol protein solubility set.

Test: soluble on expression in E. coli; label from the status in PepcDB or PDB records

Sequence	soluble on expression in E. coli
MGSDKIHHHHHHMKTLQYSFAQIEAFATIAETGSLSQAAIRLAKDRTTLRDLLDYLEDALGYRLFSREGRSLTLTAEGEQLFRQAHLLLRQAQAFESFAQTLPQTAGQALRLVYDPFVPREFLCALADNLARRQIRLSCWSASRREAEQALSDGVAEMAICQANNRTLGSEMEWRALGTVDLRFYAADSLFHDAPRPLTLLNLSLTPQLVMHRRSDDQIARRLQISGHTLYMNEITLLRHALEQGRGWGFLPDHLRPGEWQGVSEIATEVGSQGLNVTMVMLWLPGMNKHRMLSDIVHEAPELWLRR	not soluble
MSLELRPLHPLDGLLKFAGLARSTFYYQQKVLLVDDKYAGLKDLIQATFYEHKGRYGYRRITAALRRAGHLVNHKTVQKLMGQLGLKSLIRVKKYRSYKGETGKAAPNLLKRDFKAQYLNQKWATDVTEFKVGGQKLYLSPIMDLYSGEIISYAIARRPLYSMVDEMLEGAFKRLGPHEKPILHSDQGWQYRMPIYQRLLNENSIAASMSRKGNCYDNAAIESFFSTLKSEFFYLNKFNDLDELQAGIEEYIEYYNHSRIKLKLNGLSPVEYRMQAAKAAEGHHHHHH	not soluble
MGSDKIHHHHHHAQNTASVQEAMANYDYKTVIRLIDEESASPQLLIQKAKALKSLGRTAEALSTLQHIIIELPENQQALVEAAECCRQLSKFNEALGYYRKVMELNPEHIYAHLQYTRLLYNYQRYGDALRESIALARKDSSATVLRLMAESMEGAGMPVESMFCYLSIIRKYPSDYLSVAKLGSIFNTMKDYEGAIALTEAYRRTDSTNVEVNRQNALAYCLRKEYPTAIKRYQDLTARGDSTLLTCYYLGVSYYATKEYYKARDWLLKAKSCQSPGANLLYYLGRSCSKTLWKQEGIGYLNQAIALTIPADSIMERLYSGLADCYRQTKQTRDQIKATKEQYKYAPDKHILLYNLAFLSDKIGDTKATEHYLQAFLRTKSKQNAVLQQPDDDEEEPAPYIDYYKSATNKLESIRKEKFLKGEK	not soluble
MRKTWLSLLLLFILALSACGNAADDQKNNSASPKEKKPETITYQSENGPVEVPADPKRVVVLSTFAGHVLALDVPIVGVDSWSKMSPLFQEKLKDAEVVTDEDIEKIMALKPDLIIGLSNTKKVDKLSKIAPTVTFTYGKVDYLTQFLEIGKLLNKEKEAKAWIDDFKQRAQQAGEEIRAKIGENATVTVAENFDKQLYVFGNNWARGTEILYQEMKLKMPKAVEEQALKPGYYAVSLEALPQFVGDYLILSKNGDGDTSFMETNTFKNIPAVKNGHMFVADAKAFYFNDPITLDYQLDFFKKHFLGQ	not soluble
MSLNSAIKDIEIIEMGEKLRETSSPWSSTILLVKLTSADGLVGYGEAPTTLMTLPVLESMKEVARVFKGKDFFNVEQNVFDFYRNSFYLPVSMEATSALSAFEIASWDLIGKELGTPVYKLIGGEVNHNIRAYANGWYNDCVTPDDFVKKAKEVVKMGFTAMKFDPFGDNYDTITNEGIENARNIVGALRSEFGEKVDLLIEYHGRFSKIAAIKAGMALEEFKPYFYEEPLHPDLDHDLLDLKQYYKVPIALGERVLNKKIFARFISQKLVDIIQPDLTNSGGILEAKKIAAIADGFGIPIAPHNAFGPIQTAATLNVDTTLTNFAIQESFEMFWPDWKKNLMASGYKLENGYFRLTGDAGIGKVNESIVEKYQVSGMEPFDDKEPPWVVSGTFKHYQQKEGHHHHHH	not soluble
MAHHHHHHSGTVTDDYLANNVDYASGFKGPLPMPPSKHIAIVACMDARLDVYRMLGIKEGEAHVIRNAGCVVTDDVIRSLAISQRLLGTREIILLHHTDCGMLTFTDDDFKRAIQDETGIRPTWSPESYPDAVEDVRQSLRRIEVNPFVTKHTSLRGFVFDVATGKLNEVTP	soluble
MLTIEPPSATFPASGGSSTHTITSVNESRMAFKVKSSNNEHYRVRPVYGFVEARGKMKFEIIRLEGPVKDDKIMLQYAEVPADETDAQAPFKAGAQQGDVTILLKTN	not soluble
MSVSNTQFNPFGNHETNLKELKLQLEQVTSKSVKQIEDVKGLTVTLERLTEIAKNIPETAIQSLISEIVASFPKCVSVLGEKKPEDLRTASFISLLRRLNQFIQTIADRVTKPFDSDVLKEWAPIFVSLLTGKHSALKENGALLWKKTFGTVKNNLICPEDLRGILDSMPKRYAISVPQSTSSKTDGYFSDDEAMDGLPTSSAAGAGNNFKFPKIKTEVIESQSSFQFSQQPVADEVAEKLLKEQKLKAEETQSPKTSSTETSRRRTSRMALIDEDSCDFVAILTSPATRKNRLTDRQKEKLEEVSGPRTTINYMDEESQNGFVKTEQFKKALTAMNFEVEDESVSAPTSKNSENPEILPIDEIPTVHVESAKSDKTPEPVKKTNKRRRLFHDQPVSAFATESSRKPEIANNDLGEILEKLPEHASTKSPEQKRGRKDSAISCETSDDISDSMKSNDSRTIITQQEHAVEQKSRKKPGRPKNSRNRSETTRKSGRLSAIQNNACVTSESSMSNETGDVEKTDDKKESVQNIPEQEAAEKKEVDTTISDKRLSDTEEAIEENIVKSPPKTPRTPSILRVGKRMSTSSSPMTERKRNRVHFGEESLPVDVVSSPLTPRRRPLAEAAKNPFVEATVAASNSNLSDIQSSTNDSSFYPTLADCRDKIDRILPNLVTLCMKTVLDSAKRSLSAVGVKTVGDFASLSKSDIEKFTWIKGRVVGARNVLMQYEKTRNAERREEIVDGSEEKPMDVADAIPPEIEAVSPSSKDSQSVPMETKDNSPPANEVIAQELPKASPISNTPSVESTQPALNVQKTPEASQSPASPISSNTGSSTFTVDPTPVQKDLSVVLSRKNLAPIFCGGLKNFKKEQLCPQKQCEKAKDAEKSFVEDGRVLHRICVSLSNAHTQNHWPSENSSKLLSNINKASILFKNLVQTRGAGDWDDTDLENDDLSTAESDVATDVDVLVAVYKRFSRHHTSPMANNLPWRSVMECVNEAACLLESIFLTRAPNKGSM	not soluble
GMKDNYDAPESMLTGRVMYNGEALQLRGNEAVQLQLYQHGYAKHDPINVYVNQDGMYSANLFDGEYQMITKSGNGPWTSEGRDTINVTVAGNTVQDVEVTPYYLVRDAQMTLEGNKVNASFKVEKVAGGGIDRVFFMLSTTQFVNDAEHNVDRYDETDNLDAYDETGKLYTFATRDYTDNSMFQTALKRGTLFGRICIWPKGSDQGIYSKVIRLK	soluble
MGSLVREWVGFQQFPAATQEKLIEFFGKLKQKDMNSMTVLVLGKGGVGKSSTVNSLIGEQVVRVSPFQAEGLRPVMVSRTMGGFTINIIDTPGLVEAGYVNHQALELIKGFLVNRTIDVLLYVDRLDVYAVDELDKQVVIAITQTFGKEIWCKTLLVLTHAQFSPPDELSYETFSSKRSDSLLKTIRAGSKMRKQEFEDSAIAVVYAENSGRCSKNDKDEKALPNGEAWIPNLVKAITDVATNQRKAIHVDAAALEHHHHHH	soluble
MGSDKIHHHHHHMIQVLNLTTPETIKNYLHEALGKIEPFEQCILLDYPDHANIGDNLIWLGELLYLHNTRQSQITYNASVENFSVQEMDKCKSSCEIPIFLHGGGNLGDLWLKFQNFREYIISEYKENPIIIFPQSIYFQEEDNLIKAARIFNSHPNLTIFVRDNYSYQLATNYFSNCRIIKSPDAAFQLVNTPGIAAAYQNKSSILYHFRNDKELNLNQAGSPHTLDLPNLIVEDWASYKYESDSYKELPHNAVIQSFARVFHGWEQGKLFPDEWITRQIWKYFHPYTTAFSQSYNPESHRKAWSYMYQGVYQFKQHRLIITNRLHGHILSTLMGIPHIFLPNSYHKNEAFYEAWTYQIPFCRFVKDPEKIADTVRELIEISEIAKN	not soluble
MSQLCPCGSAVEYSLCCHPYVSGEKVAPDPEHLMRSRYCAFVMQDADYLIKTWHPSCGAAALRAELMAGFAHTEWLGLTVFEHCWQDADNIGFVSFVARFTEGGKTGAIIERSRFLKENGQWYYIDGTRPQFGRNDPCPCGSGKKFKKCCGQ	not soluble
MDNKIVYVVSDSVGETADLVVRAAMGQFPFAPDIRRVPYVEDTGTLKEVISIAKSNQALICFTLVKPDMRQYLVTEAAKEGVEAYDIIGPLIDQIEEITGQVPRYEPGVVRRLDEEYFKKIEAIEFAVKYDDGRDARGILKADIVLIGISRTSKTPLSQYLAHNKRLKVANVPLVPEVDPPEELYQVAKEKCFGLKITPEKLNHIRKERLKSLGLSDGATYANINRIKEEIDHFENVVSKINCQVIDVSNKAIEETANIIVNAVQNQKMFMAGDPLEHHHHHH	soluble
MSDSQINSRTTIDEYLSRADWRVNANANQDYSLGGMILNAAGKVTANYWLDQVFSPAASAAHREGSIHIHDLDMLSGYCAGWSLRQLLEEGFGGVPGTISSRPPKHFSSACGQIVNFLGTLQNEWAGAQAFSSFDTYMAPFVRLDNLSYDEIVQDMQEFIFNLNVPSRWGTQTPFTNLTFDWTCPADLKDSVPFIGEEPVDFTYGELQEEMDLINRAFIQVMSAGDADGRPFTFPIPTYNITKDFDWDSPNTEALFTMTAKYGLPYFQNFINSDLDPGMIRSMCCRLQLDLRELLKRGNGLFGSAELTGSIGVVTLNCARLGYLYAGDEQALLGAVDELIELGIDTLERRRDFVATHMRQGLYPYSARWLPSLDNHFSTIGVNGCNEMIRNFTHDAYNLTDPQGHAQVARLLDHINARLVQAQERTGHLFNLEATPAEGTTYRLAKEDLKRYPDMLHAGTPEEPYYTNSSQLPVSHTPDPFEALALQEDLQSKYTGGTVLHLYMGAAMSDGKACAALVRRALTNFHLPYITITPTFSICPDHGYISGEHPECPQCGATTEMWTRVMGYFRPVQSFNTGKKGEFHERTYFAEALI	not soluble
MSLKALIFDMDGVLVDSMPFHAAAWKKAFLEMGMEIQDEDIYAIEGSNPRNGLPLLIRKARKEPEDFDFEAITSIYRQEFNRIFKLKAFDGMKECLEFLKSRFLLSVVSGSDRLIVNGIVDQLFPGIFDTVVTGDDVLNSKPDPDPFLKAVELLNVGKEECVVIENAVLGVEAAKKADIYCIGVPTYVKPSELDRADLVVGNHQKLMEHLLSLEPLFSPEFIPGRREGHHHHHH	soluble
MLIHMKSRKMNLNKLEDGGSWFSRLKQFLQGEPQNQEELVSLLRDAQIRSLINSETLAMIEGAILFSKMRVRDIMLPKNQMVCINKDDDFKHIISIVTQTGHSRFPVTGENSDEVVGILHAKDLLKYQPENMESFDLLDICRQVTFVPESRRLDSLLSEFRSNRNHMAIVVDEYGEVSGFVTIEDIIEQIIGDIEDEFDIDEDAYIKTHEGHCYIIKAHTPIEEFNEQLNADFSDETYDTIGGIVLNKFGYLPQRGEVIIIDDFEFKVLNADSRRIKLLECLDKRSPEKLNSTVEG	not soluble
MSSENAQLKKDLIKAVLSPLFPTATEGGENMDSNLKALLDAAIDQKVDESETVTAESILDPSLPARWIFARITPGTTISIVTDSGDMIGPVVFVAFDQVHGIVFVTQESSVTPAGQATTLIDVDKVESVTFFSLEHHHHHH	soluble
MTFLIPAYNEEKSIGPLIDRIKMLCPDSEIIVVDNNSSDRTSEIATSRGVRVIFEGKQGKANAMVAAFRNTRTEYAVMMDADLTYLPDDSRVLVEVLKAEGADVVLGSRLNGEKEDGAISRINTVGNHILSFTASILYSPVSDVCTGHWAFNRRAIRHILEEGLNYSGFELEAEMFSKLARAGLKIVEVPITYRKRSDEPKLSSFTDGFKIFRTLVLERLRLEHHHHHH	not soluble
MLFDTHAHLNAVQYEEDLEQVIERARDEGVSHIVVVGFDRPTIDRAIELAERYPFIYAAVGWHPVDAIEMTDDDLQMIEQLAAHPKVVALGEMGLDYHWDKSPKDVQQEVFRQQIRLAKKVKLPIIIHNREATADILKILQEENAAEVGGIMHCFSGSVEVAKQCMDMNFLISLGGPVTFKNAKKPKEVAKEIPLSHLLIETDCPYLTPHPFRGKRNEPSYVKYVAEAIAQIKNISFAEVAETTAENAKKLFAIDR	not soluble
